These results are taken from the RNAGym collection of RNA variant scans (doi:10.7554/elife.80360).

B1: CPEB3 Ribozyme (parent)
chain: GGGGGCCACAGCAGAAGCGUUCACGUCGCGGCCCCUGUCAGAUUCUGGUGAAUCUGCGAAUUCUGCUGU

In this data set the parent is B1. Put plainly: self-cleavage, relative activity (ratio to wild type); higher = more cleavage; co-transcriptional.
For the variant GGGGGCCACAGCAGAAGCGUUCACGUCGCGGCCCCUUUCAGAUUCUGGUGAAUCUGCGAAUCCUGCUGU, the self-cleavage is 0.299.

Regarding GGGGGCCACAGCAGAAGCGUUCACGUCGCGGCCCCUUUCAGAUUAUGGUGAAUCUGCGAAUUCUGCUGU, the self-cleavage amounted to 0.295.

GGGGGCCACAGCAGAAGCGUUCACGUCGCGGCCCCUUUCAGAUUCUGGUGAAUCAGCGAAUUCUGCUGU: the self-cleavage came out at 0.187.

As for GGGGGCCACAGCAGAAGCGUUCACGUCGCGGCCCCUUUCAGAUUCUGGUGAAUCUGCGAAAUCUGCUGU, the self-cleavage was found to be 0.263.

With GGGGGCCACAGCAGAAGCGUUCACGUCGCGGCCCCUGACAGAUUCCGGUGAAUCUGCGAAUUCUGCUGU, the self-cleavage was 0.954.

Regarding GGGGGCCACAGCAGAAGCGUUCACGUCGCGGCCCCUGACAGAUUCAGGUGAAUCUGCGAAUUCUGCUGU, the self-cleavage amounted to 0.941.

With GGGGGCCACAGCAGAAGCGUUCACGUCGCGGCCCCUUUCAGAUUCUAGUGAAUCUGCGAAUUCUGCUGU, the self-cleavage came out at 0.324.

Take GGGGGCCACAGCAGAAGCGUUCACGUCGCGGCCCCUUUGAGAUUCUGGUGAAUCUGCGAAUUCUGCUGU: the self-cleavage came out at 0.214.

For GGGGGCCACAGCAGAAGCGUUCACGUCGCGGCCCCUUUAAGAUUCUGGUGAAUCUGCGAAUUCUGCUGU, the self-cleavage worked out at 0.273.

Regarding GGGGGCCACAGCAGAAGCGUUCACGUCGCGGCCCCUGACAGAUUCUGGUGAAUGUGCGAAUUCUGCUGU, the self-cleavage was 0.8.

Regarding GGGGGCCACAGCAGAAGCGUUCACGUCGCGGCCCCUGACAGAUUCUGGUGAAUAUGCGAAUUCUGCUGU, the self-cleavage is 0.797.

Turning to GGGGGCCACAGCAGAAGCGUUCACGUCGCGGCCCCUGACAGAUUCUGGUGAAUCUGCGAAUGCUGCUGU, the self-cleavage amounted to 0.742.

Consider GGGGGCCACAGCAGAAGCGUUCACGUCGCGGCCCCUUUCAGAUUCUGCUGAAUCUGCGAAUUCUGCUGU, for which the self-cleavage was found to be 0.326.

Consider GGGGGCCACAGCAGAAGCGUUCACGUCGCGGCCCCUGCCAGAUUCUGGUGAAUCUGCGAAUUCUGCUGU, for which the self-cleavage is 0.961.

On to GGGGGCCACAGCAGAAGCGUUCACGUCGCGGCCCCUGACAGAUUCUGGUGAAUCUGCGAAUUCUGCUGU, for which the self-cleavage amounted to 0.929.

For GGGGGCCACAGCAGAAGCGUUCACGUCGCGGCCCCUGACAGAUUCUGGUAAAUCUGCGAAUUCUGCUGU, the self-cleavage stood at 0.952.

Regarding GGGGGCCACAGCAGAAGCGUUCACGUCGCGGCCCCUUUCAGAUUCUGGUGAAUCUGCAAAUUCUGCUGU, the self-cleavage was found to be 0.17.

For the variant GGGGGCCACAGCAGAAGCGUUCACGUCGCGGCCCCUGACGGAUUCUGGUGAAUCUGCGAAUUCUGCUGU, the self-cleavage is 0.808.

In the case of GGGGGCCACAGCAGAAGCGUUCACGUCGCGGCCCCUGACCGAUUCUGGUGAAUCUGCGAAUUCUGCUGU, the self-cleavage was determined as 0.703.

For the variant GGGGGCCACAGCAGAAGCGUUCACGUCGCGGCCCCUGACAAAUUCUGGUGAAUCUGCGAAUUCUGCUGU, the self-cleavage came out at 0.718.

On to GGGGGCCACAGCAGAAGCGUUCACGUCGCGGCCCCUGACAUAUUCUGGUGAAUCUGCGAAUUCUGCUGU, for which the self-cleavage is 0.795.

With GGGGGCCACAGCAGAAGCGUUCACGUCGCGGCCCCUGACAGAAUCUGGUGAAUCUGCGAAUUCUGCUGU, the self-cleavage was found to be 0.784.

As for GGGGGCCACAGCAGAAGCGUUCACGUCGCGGCCCCUUUCAGAUUCUGGUGACUCUGCGAAUUCUGCUGU, the self-cleavage was 0.281.

Regarding GGGGGCCACAGCAGAAGCGUUCACGUCGCGGCCCCUGACAGAUUCUGGUGAAUCUGCGAUUUCUGCUGU, the self-cleavage amounted to 0.453.

In the case of GGGGGCCACAGCAGAAGCGUUCACGUCGCGGCCCCUUUCAGAUUCUGGUGAAUCUGCGAAUUCGGCUGU, the self-cleavage was 0.227.

For the variant GGGGGCCACAGCAGAAGCGUUCACGUCGCGGCCCCUUUCAGAUUCUGGUGAAUCUGCGAAUUCUCCUGU, the self-cleavage is 0.228.

As for GGGGGCCACAGCAGAAGCGUUCACGUCGCGGCCCCUUUCAGAUUCUGGUGAAUCUGGGAAUUCUGCUGU, the self-cleavage was found to be 0.209.

On to GGGGGCCACAGCAGAAGCGUUCACGUCGCGGCCCCUUUCAGAUUCUGGUGAAUCUGCGACUUCUGCUGU, for which the self-cleavage is 0.224.

GGGGGCCACAGCAGAAGCGUUCACGUCGCGGCCCCUUUCAGAUUCUGGUGAAUCUGCGAGUUCUGCUGU: the self-cleavage was found to be 0.208.

For GGGGGCCACAGCAGAAGCGUUCACGUCGCGGCCCCUUUCAGAUUCUGGUGAAUCUGCGAUUUCUGCUGU, the self-cleavage came out at 0.195.

With GGGGGCCACAGCAGAAGCGUUCACGUCGCGGCCCCUGACAGAUUCUGGUGAAUCUGCGAAUUCAGCUGU, the self-cleavage was determined as 0.799.

Regarding GGGGGCCACAGCAGAAGCGUUCACGUCGCGGCCCCUGACAGAUUCUGGUGAAUCUGCGAAUUCGGCUGU, the self-cleavage came to 0.858.

As for GGGGGCCACAGCAGAAGCGUUCACGUCGCGGCCCCUGACAGCUUCUGGUGAAUCUGCGAAUUCUGCUGU, the self-cleavage was found to be 0.892.

For the variant GGGGGCCACAGCAGAAGCGUUCACGUCGCGGCCCCUGACAGGUUCUGGUGAAUCUGCGAAUUCUGCUGU, the self-cleavage was found to be 0.755.

For GGGGGCCACAGCAGAAGCGUUCACGUCGCGGCCCCUGACAGAUUCUGGUGAAUCUGCGAAUUCUGCUAU, the self-cleavage was 0.922.

With GGGGGCCACAGCAGAAGCGUUCACGUCGCGGCCCCUGACAGAUUCUGGUGAAUCUGGGAAUUCUGCUGU, the self-cleavage was found to be 0.297.

Regarding GGGGGCCACAGCAGAAGCGUUCACGUCGCGGCCCCUUUCAGAUUCUGGUGAAUCUGCGAAUUCUGCUUU, the self-cleavage was 0.375.

Consider GGGGGCCACAGCAGAAGCGUUCACGUCGCGGCCCCUUUCAGAUUCUGGUGAAUUUGCGAAUUCUGCUGU, for which the self-cleavage was 0.332.

As to GGGGGCCACAGCAGAAGCGUUCACGUCGCGGCCCCUUUCAGAUUCUGGUGAAUCUGCGAAUUCUGUUGU, the self-cleavage amounted to 0.245.
